{"source": "paper PMC7192620", "key": {"[1]": {"biological_target": "YBX1 (YB-1) (UniProt P67809 1-324)", "sequence (P67809 whole entry)": "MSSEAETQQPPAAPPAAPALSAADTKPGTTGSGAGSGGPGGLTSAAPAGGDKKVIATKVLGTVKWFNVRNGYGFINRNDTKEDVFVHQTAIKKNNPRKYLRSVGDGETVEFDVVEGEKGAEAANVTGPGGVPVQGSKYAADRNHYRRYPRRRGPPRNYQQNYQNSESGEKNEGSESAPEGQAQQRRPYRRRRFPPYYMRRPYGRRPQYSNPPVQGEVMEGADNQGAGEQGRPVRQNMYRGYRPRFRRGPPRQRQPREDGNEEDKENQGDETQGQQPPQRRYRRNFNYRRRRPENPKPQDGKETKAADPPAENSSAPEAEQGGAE", "test": "ELONA titration"}, "[2]": {"biological_target": "T1, RBM3 (UniProt P98179 1-157)", "T1 sequence": "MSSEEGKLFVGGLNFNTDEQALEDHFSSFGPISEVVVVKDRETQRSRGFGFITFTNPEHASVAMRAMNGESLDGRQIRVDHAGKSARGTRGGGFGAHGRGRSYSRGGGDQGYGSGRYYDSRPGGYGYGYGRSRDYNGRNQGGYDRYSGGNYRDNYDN", "test": "ELONA titration"}}, "data": [{"binder": "Sequence 7 (ssDNA, 5' biotin (5Biosg)) DNA: CTAGCATGACTGCAGTACGTTACTTAATTGGGGGGGGGGATTCTGTTTTGTCTCTCTGTCTCTTATACACATCTGACGCTGCCGACGA", "values": [{"measurement": "Kd", "setting": "[1]", "result": "~3", "unit": "nM"}]}, {"binder": "Sequence 7 RC (ssDNA, 5' biotin (5Biosg)) DNA: TCGTCGGCAGCGTCAGATGTGTATAAGAGACAGAGAGACAAAACAGAATCCCCCCCCCCAATTAAGTAACGTACTGCAGTCATGCTAG", "values": [{"measurement": "binding result", "setting": "[2]", "result": "no binding"}]}]}
